{
  "source": "paper PMC4720616",
  "about": "“Influence of tumour size on the efficacy of targeted alpha therapy with ^213Bi-[DOTA^0,Tyr^3]-octreotate” (EJNMMI Research, 2016)",
  "key": {"[1]": {"test_system": "CA20948 (rat pancreatic tumour) tumours", "assay": "Targeted alpha therapy: tumour growth and survival, CA20948 tumours", "assay_type": "in vivo, rat tumour cells in BALB/c (nu/nu) nude mice", "conditions": "for Mean time to reach a tumour volume of 2000 mm^3: i.v. 2–4 MBq/0.3 nmol ^213Bi-DOTATATE or 0.3 nmol unlabelled DOTATATE (control) on three consecutive days, mean ± SD; for Median survival: follow-up 90 days after treatment", "protocol": "(§1) All animal studies were in agreement with the Animal Welfare Committee requirements of Erasmus MC and conducted in accordance with accepted guidelines. Male 6–8-week-old BALB/c (nu/nu) nude mice were obtained from Charles River (Kißlegg, Germany). Subcutaneous tumours were established in mice by inoculation of approximately 5 × 10^6 cells (CA20948 or H69), suspended in 200 μL sterile culture medium Hanks’ balanced salt solution (HBSS) in the case of CA20948 cells. Three days after inoculation of CA20948 cells, a tumour with a tumour size ~50 mm^3 (used for the “smaller” tumour-size group) was reached, and 2 weeks after inoculation, a tumour size ~200 mm^3 (used for the “larger” tumour-size group) was reached. For H69 cells, 200 μL, containing 1/3 Matrigel and 2/3 HBSS medium (Gibco, Life Technologies), was used. The cells were injected subcutaneously (s.c.) into the right flank of the mice. One week after inoculation of tumour cells, tumours with a volume of ~50 mm^3 (used for the smaller tumour-size group) could be detected, and after 3 weeks, tumour volumes reached ~200 mm^3 (used for the larger tumour-size group). Tumour volumes were estimated using a calliper.\n(§2) Tumour cells were inoculated into the right flank of the mice, and the tumours were allowed to grow until tumour volumes of approximately 50 and 200 mm^3 were reached, respectively. […] The control group (H69-bearing animals: small tumour n = 10, large tumour n = 9; CA20948-bearing animals: small tumour n = 5, large tumour n = 5) received i.v. via the tail vein three times 0.3 nmol/200 μL of unlabelled DOTATATE for three consecutive days.\n(§3) All animals were followed for 90 days after treatment. The behaviour and the health status of the animals were observed daily, and the weight of the animals and the tumour volumes were monitored twice a week."}, "[2]": {"test_system": "kidney", "conditions": "mouse, in vivo"}, "[3]": {"assay": "in vivo", "set-up": "species or system BALB/c (nu/nu) nude mice", "conditions": "BALB/c (nu/nu) nude, mouse, iv, total radioactivity", "protocol": "(§4) When tumour volumes reached ~120 mm^3, animals were divided into five groups with seven animals in each group for both H69 and CA20948 tumour-bearing animals. […] At 10, 30, 60 and 120 min post injection (p.i.), animals in the four groups were euthanized and tissues and organs of interest (including tumour, kidney, pancreas, spleen, liver, muscle, blood, femur, femur marrow and adrenals) were collected and counted using a gamma counter (Wallac Wizard 3, PerkinElmer, USA). […] The animals of the control group were euthanized 60 min p.i.; tissues and organs of interest were harvested and counted using a gamma counter. Data was expressed in mean percentage of total injected radioactivity per gram tissue (%IA/g) ± SD."}, "[4]": {"test_system": "CA20948 tumour-bearing mice", "assay": "in vivo", "set-up": "species or system BALB/c (nu/nu) nude mice", "conditions": "mouse, iv", "protocol": "as §4"}, "[5]": {"test_system": "H69 tumour-bearing mice", "assay": "in vivo", "set-up": "species or system BALB/c (nu/nu) nude mice", "conditions": "mouse, iv", "protocol": "as §4"}, "[6]": {"conditions": "in the absence of L-lysine; ref manuscript in preparation; cited from earlier work", "description": "In patients, the maximum tolerated dose in kidney is postulated to b ..."}, "[7]": {"test_system": "H69 (human small cell lung carcinoma) tumours", "assay": "Targeted alpha therapy: tumour growth and survival, H69 tumours", "assay_type": "in vivo, human tumour cells in BALB/c (nu/nu) nude mice", "conditions": "for Mean time to reach a tumour volume of 2000 mm^3: i.v. 2–4 MBq/0.3 nmol ^213Bi-DOTATATE or 0.3 nmol unlabelled DOTATATE (control) on three consecutive days, mean ± SD; for Median survival: follow-up 90 days after treatment", "protocol": "as §1, §2, §3"}, "[8]": {"conditions": "3.8 MBq/0.3 nmol/200 uL, Uptake, Adrenal"}, "[9]": {"conditions": "3.8 MBq/0.3 nmol/200 uL, Uptake, Blood"}, "[10]": {"conditions": "3.8 MBq/0.3 nmol/200 uL, Uptake, Femur"}, "[11]": {"conditions": "3.8 MBq/0.3 nmol/200 uL, Uptake, Kidney"}, "[12]": {"conditions": "3.8 MBq/0.3 nmol/200 uL, Uptake, Liver"}, "[13]": {"conditions": "3.8 MBq/0.3 nmol/200 uL, Uptake, Muscle"}, "[14]": {"conditions": "3.8 MBq/0.3 nmol/200 uL, Uptake, Tumour"}, "[15]": {"conditions": "H69 small tumours, after treatment"}},
  "data": [
    {"smiles": "C[C@@H](O)[C@H](NC(=O)[C@@H]1CSSC[C@H](NC(=O)[C@@H](Cc2ccccc2)NC(=O)CN2CCN(CC(=O)O)CCN(CC(=O)O)CCN(CC(=O)O)CC2)C(=O)N[C@@H](Cc2ccc(O)cc2)C(=O)N[C@H](Cc2c[nH]c3ccccc23)C(=O)N[C@@H](CCCCN)C(=O)N[C@@H]([C@@H](C)O)C(=O)N1)C(=O)O", "note": "[^213Bi-DOTATATE, ^213Bi-[DOTA^0, Tyr^3]-octreotate, metal not drawn]", "values": [
      {"measurement": "Tumour response", "setting": "[1]; CA20948 large tumours", "result": "partial response"},
      {"measurement": "Mean time to reach a tumour volume of 2000 mm^3", "setting": "[1]; CA20948 large tumours (~200 mm^3)", "result": "77 ± 25", "unit": "days"},
      {"measurement": "Median survival", "setting": "[1]; CA20948 large tumours", "result": 70, "unit": "days"},
      {"measurement": "Mean time to reach a tumour volume of 2000 mm^3", "setting": "[1]; CA20948 small tumours (~50 mm^3)", "result": "76 ± 15", "unit": "days"},
      {"measurement": "Animals with stable disease till the end of the study", "setting": "[1]; CA20948 small tumours, after therapy", "result": "one"},
      {"measurement": "Animals with no tumour regrowth", "setting": "[1]; CA20948 small tumours, n = 8 treated", "result": "one"},
      {"measurement": "Median survival", "setting": "[1]; CA20948 small tumours", "result": "> 90", "unit": "days"},
      {"measurement": "Kidney histology, control vs treated animals", "setting": "[2]", "result": "no significant differences were observed"},
      {"measurement": "tissue uptake at 10 min", "setting": "[3]; 2.1 MBq/0.3 nmol/200 uL, Uptake, Kidney", "result": "51.5 ± 16.6", "unit": "%ID/g"},
      {"measurement": "tissue uptake at 2 h", "setting": "[3]; 2.1 MBq/0.3 nmol/200 uL, Uptakes in other organs (other than tumour and kidney)", "result": "< 2", "unit": "%ID/g"},
      {"measurement": "tissue uptake at 2 h", "setting": "[3]; 3.8 MBq/0.3 nmol/200 uL, Uptake in all other organs (other than tumour and kidney)", "result": "< 2", "unit": "%ID/g"},
      {"measurement": "tissue uptake at 0.5 h", "setting": "[3]; [8]", "result": "2 ± 0.6", "unit": "%ID/g"},
      {"measurement": "tissue uptake at 1 h", "setting": "[3]; [8]", "result": "0.9 ± 0.4", "unit": "%ID/g"},
      {"measurement": "tissue uptake at 2 h", "setting": "[3]; [8]", "result": "0.7 ± 0.4", "unit": "%ID/g"},
      {"measurement": "tissue uptake at 10 min", "setting": "[3]; [9]", "result": "8.1 ± 1.8", "unit": "%ID/g"},
      {"measurement": "tissue uptake at 0.5 h", "setting": "[3]; [9]", "result": "2.3 ± 1.1", "unit": "%ID/g"},
      {"measurement": "tissue uptake at 1 h", "setting": "[3]; [9]", "result": "0.6 ± 0.2", "unit": "%ID/g"},
      {"measurement": "tissue uptake at 2 h", "setting": "[3]; [9]", "result": "0.1 ± 0.06", "unit": "%ID/g"},
      {"measurement": "tissue uptake at 0.5 h", "setting": "[3]; [10]", "result": "1.5 ± 0.4", "unit": "%ID/g"},
      {"measurement": "tissue uptake at 1 h", "setting": "[3]; [10]", "result": "1 ± 0.5", "unit": "%ID/g"},
      {"measurement": "tissue uptake at 2 h", "setting": "[3]; [10]", "result": "0.4 ± 0.4", "unit": "%ID/g"},
      {"measurement": "tissue uptake at 10 min", "setting": "[3]; [11]", "result": "44 ± 9.6", "unit": "%ID/g"},
      {"measurement": "tissue uptake at 0.5 h", "setting": "[3]; [11]", "result": "28.5 ± 3.7", "unit": "%ID/g"},
      {"measurement": "tissue uptake at 1 h", "setting": "[3]; [11]", "result": "26.2 ± 2.6", "unit": "%ID/g"},
      {"measurement": "tissue uptake at 2 h", "setting": "[3]; [11]", "result": "25 ± 3.8", "unit": "%ID/g"},
      {"measurement": "tissue uptake at 0.5 h", "setting": "[3]; [12]", "result": "0.9 ± 0.09", "unit": "%ID/g"},
      {"measurement": "tissue uptake at 1 h", "setting": "[3]; [12]", "result": "0.4 ± 0.06", "unit": "%ID/g"},
      {"measurement": "tissue uptake at 2 h", "setting": "[3]; [12]", "result": "0.3 ± 0.05", "unit": "%ID/g"},
      {"measurement": "tissue uptake at 0.5 h", "setting": "[3]; [13]", "result": "1.1 ± 0.2", "unit": "%ID/g"},
      {"measurement": "tissue uptake at 1 h", "setting": "[3]; [13]", "result": "1 ± 1.4", "unit": "%ID/g"},
      {"measurement": "tissue uptake at 2 h", "setting": "[3]; [13]", "result": "0.5 ± 0.4", "unit": "%ID/g"},
      {"measurement": "tissue uptake at 10 min", "setting": "[3]; 3.8 MBq/0.3 nmol/200 uL, Uptake, Pancreas", "result": "3.2 ± 0.3", "unit": "%ID/g"},
      {"measurement": "tissue uptake at 10 min", "setting": "[3]; [14]", "result": "7.5 ± 2.2", "unit": "%ID/g"},
      {"measurement": "tissue uptake at 0.5 h", "setting": "[3]; [14]", "result": "9.8 ± 2.4", "unit": "%ID/g"},
      {"measurement": "tissue uptake at 1 h", "setting": "[3]; [14]", "result": "9.8 ± 2.3", "unit": "%ID/g"},
      {"measurement": "tissue uptake at 2 h", "setting": "[3]; [14]", "result": "6.8 ± 3.2", "unit": "%ID/g"},
      {"measurement": "Blood clearance T1/2", "setting": "[4]", "result": "14 ± 1", "unit": "min"},
      {"measurement": "Renal clearance T1/2", "setting": "[4]", "result": "10 ± 3", "unit": "min"},
      {"measurement": "Tumour clearance T1/2", "setting": "[4]", "result": "132 ± 54", "unit": "min"},
      {"measurement": "Blood clearance T1/2", "setting": "[5]", "result": "11 ± 2", "unit": "min"},
      {"measurement": "Tumour clearance T1/2", "setting": "[5]", "result": "138 ± 66", "unit": "min"},
      {"measurement": "Tumour uptake T1/2", "setting": "[5]", "result": "7 ± 2", "unit": "min"},
      {"measurement": "Maximum tolerated activity", "setting": "[6]", "result": "< 13.1 ± 1.2", "unit": "MBq"},
      {"measurement": "Tumour response", "setting": "[7]; H69 large tumours", "result": "partial response"},
      {"measurement": "Mean time to reach a tumour volume of 2000 mm^3", "setting": "[7]; H69 large tumours (~200 mm^3)", "result": "110 ± 19", "unit": "days"},
      {"measurement": "Effect on tumour volume", "setting": "[7]; H69 large tumours, cumulative injected activity 9.4 ± 0.7 MBq", "result": "Shrinkage of tumours was observed"},
      {"measurement": "Median survival", "setting": "[7]; H69 large tumours", "result": "> 90", "unit": "days"},
      {"measurement": "Mean time to reach a tumour volume of 2000 mm^3", "setting": "[7]; H69 small tumours (~50 mm^3)", "result": "102 ± 19", "unit": "days"},
      {"measurement": "Animals with partial response", "setting": "[7]; [15]", "result": "eight"},
      {"measurement": "Animals with stable disease", "setting": "[7]; [15]", "result": "two"},
      {"measurement": "Animals with no tumour regrowth until the end of the study at day 90", "setting": "[7]; H69 small tumours, n = 10 treated", "result": "two"},
      {"measurement": "Median survival", "setting": "[7]; H69 small tumours", "result": "> 90", "unit": "days"}
    ]}
  ]
}
